Source: patent US20030143192A1

Target: human CCR3 (human) (UniProt P51677)
Assay: cell-based or functional assay

Chain of human CCR3 (human) (P51677 whole entry): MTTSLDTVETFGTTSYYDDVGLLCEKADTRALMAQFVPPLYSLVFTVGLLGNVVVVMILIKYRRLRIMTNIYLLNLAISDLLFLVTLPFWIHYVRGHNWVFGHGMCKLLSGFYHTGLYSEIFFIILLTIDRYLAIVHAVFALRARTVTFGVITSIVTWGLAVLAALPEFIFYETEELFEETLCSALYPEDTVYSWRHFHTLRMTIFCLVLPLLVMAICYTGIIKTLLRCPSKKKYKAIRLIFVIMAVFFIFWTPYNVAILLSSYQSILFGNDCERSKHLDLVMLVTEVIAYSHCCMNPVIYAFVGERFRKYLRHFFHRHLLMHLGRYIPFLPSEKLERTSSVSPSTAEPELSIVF

Which reduction of 25 nM eotaxin-induced Ca^2+ flux in HOS-CCR3 cells by 100 nM antagonist does the source give for “aminooxypentane (AOP)-RANTES (from UniProt P13501 24-91) (ligand)” here?
Its reduction of 25 nM eotaxin-induced Ca^2+ flux in HOS-CCR3 cells by 100 nM antagonist is 35%.
